Assay results published in patent US20260176358A1 (JIANGSU HENGRUI PHARMACEUTICALS, published 2026).
Residue numbers refer to the chain shown, from its start.

T1: human CGRP (human, UniProt P06881 83-119)
T1 peptide (looked up): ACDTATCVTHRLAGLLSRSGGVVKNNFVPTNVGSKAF

T2: rat CGRP (rat, UniProt P01256 83-119)
T2 peptide (looked up): T1 peptide (looked up) with A1S, D3N, N25D, K35E

B1: C1H1L1 (antibody, human IgG1, kappa, V domains shown)
VH: EVQLVQSGAEVKKPGSSVKVSCKASGYTFSTSWMNWVRQAPGQGLEWMGQIYPGDGYTNYSGKFRGRVTITADKSTSTAYMELSSLRSEDTAVYYCAGDYEALWGQGTTVTVSS
VL: DIVMTQTPLSLPVTPGEPASISCRSSQSLVHSNGNTYFHWYLQKPGQSPQLLIYEVSNRFSGVPDRFSGSGSGTDFTLKISRVEAEDVGVYYCSQSTHVPFTFGQGTKLEIKR
B2: C1H3L2 (antibody, human IgG1, kappa, V domains shown)
VH: B1 VH with S61N, G62V
VL: B1 VL with N33S
B3: C1H1L2 (antibody, human IgG1, kappa, V domains shown)
VH: B1 VH
VL: B1 VL with N33S
B4: C1H2L1 (antibody, human IgG1, kappa, V domains shown)
VH: B1 VH with S61Q
VL: B1 VL
B5: C21H2L2 (antibody, human IgG1, kappa, V domains shown)
VH: EVQLVQSGAEVKKPGASVKVSCKASGYTFTDYYMNWVRQAPGQRLEWIGDINPNQGGTNYNQKFKGRATLTVDKSASTAYMELSSLRSEDTAVYYCASIIIVPNYFDYWGQGTTVTVSS
VL: DIQMTQSPSSLSASVGDRVTITCKASQNVDTNVAWFQQKPGKSPKALIYSASYRYSGVPSRFSGSGSGTDFTLTISSLQPEDFATYYCQQYNNYPYTFGGGTKVEIKR
B6: C9H3L1 (antibody, human IgG1, kappa, V domains shown)
VH: EVQLVQSGAEVKKPGASVKVSCKASGYTFTDYYMNWVRQAPGQRLEWMGVINPYQGRTTYNRKFKGRVTITVDKSASTAYMELSSLRSEDTAVYYCASLLIRPHYFDYWGQGTTVTVSS
VL: B5 VL with D30G, F36Y, F83V, Y87H, N93F, G100Q, V104L
B7: C28H1L1 (antibody, human IgG1, kappa, V domains shown)
VH: B5 VH with I48M, Q55N, G56V, G57V, N59T, A68V, L70I, N104D
VL: B5 VL with L11V, D30G, T31S, F36Y, N93S
B8: C28H4L1 (antibody, human IgG1, kappa, V domains shown)
VH: B5 VH with G57V, N59T, N104D
VL: B5 VL with L11V, D30G, T31S, F36Y, N93S
B9: C9H7L1 (antibody, human IgG1, kappa, V domains shown)
VH: B6 VH with Q55T
VL: B5 VL with D30G, F36Y, F83V, Y87H, N93F, G100Q, V104L
B10: C21H4L2 (antibody, human IgG1, kappa, V domains shown)
VH: B5 VH with Q55T
VL: B5 VL
B11: C21H4L1 (antibody, human IgG1, kappa, V domains shown)
VH: B5 VH with Q55T
VL: B5 VL with S43A, A46S
B12: C21H3L1 (antibody, human IgG1, kappa, V domains shown)
VH: B5 VH with I48M, Q55S, A68V, L70I
VL: B5 VL with S43A, A46S
B13: C21H1L2 (antibody, human IgG1, kappa, V domains shown)
VH: B5 VH with Q55N, G56V
VL: B5 VL
B14: C28H5L1 (antibody, human IgG1, kappa, V domains shown)
VH: B5 VH with Q55S, G57V, N59T, N104D
VL: B5 VL with L11V, D30G, T31S, F36Y, N93S
B15: C9H4L1 (antibody, human IgG1, kappa, V domains shown)
VH: B6 VH with M48I, V68A, I70L
VL: B5 VL with D30G, F36Y, F83V, Y87H, N93F, G100Q, V104L
B16: C9H2L1 (antibody, human IgG1, kappa, V domains shown)
VH: B6 VH with M48I, Q55N, G56V, V68A, I70L
VL: B5 VL with D30G, F36Y, F83V, Y87H, N93F, G100Q, V104L
B17: C28H3L1 (antibody, human IgG1, kappa, V domains shown)
VH: B5 VH with I48M, G57V, N59T, A68V, L70I, N104D
VL: B5 VL with L11V, D30G, T31S, F36Y, N93S
B18: C28H7L1 (antibody, human IgG1, kappa, V domains shown)
VH: B5 VH with Q55T, G57V, N59T, N104D
VL: B5 VL with L11V, D30G, T31S, F36Y, N93S
B19: C9H1L1 (antibody, human IgG1, kappa, V domains shown)
VH: B6 VH with Q55N, G56V
VL: B5 VL with D30G, F36Y, F83V, Y87H, N93F, G100Q, V104L
B20: C21H1L1 (antibody, human IgG1, kappa, V domains shown)
VH: B5 VH with Q55N, G56V
VL: B5 VL with S43A, A46S
B21: C9H5L1 (antibody, human IgG1, kappa, V domains shown)
VH: B6 VH with Q55S
VL: B5 VL with D30G, F36Y, F83V, Y87H, N93F, G100Q, V104L
B22: C9H6L1 (antibody, human IgG1, kappa, V domains shown)
VH: B6 VH with M48I, Q55S, V68A, I70L
VL: B5 VL with D30G, F36Y, F83V, Y87H, N93F, G100Q, V104L
B23: PL-1 (bispecific antibody)
chain 1: not shown
chain 2: DIVLTQSPASLAVSPGQRATITCRASESVSIHGTHLMHWYQQKPGQPPKLLIYAASKLESGVPARFSGSGSGTDFTLTINPVEAEDTANYYCQQSFEDPLTFGQGTKLEIKGGGGSGIPPKIECLPIDISIDEGKVLTVASAFTGEPTPEVTWSTGGRKIHSQEQGRFHIENTDDLTTLIIKDVQKQDGGLYTLTLRNEFGSDSATVNIHIRSI
chain 3: not shown
chain 4: not shown
B24: PL-3 (bispecific antibody)
chain 1: not shown
chain 2: B23 chain 2 with V136C, L176S, I180T
chain 3: not shown
chain 4: not shown
B25: PL-18 (bispecific antibody)
chain 1: not shown
chain 2: B23 chain 2 with G112R, G113T, G114V, G115A, V136C, L176S, I180T
chain 3: not shown
chain 4: not shown
B26: PL-9 (bispecific antibody)
chain 1: not shown
chain 2: B23 chain 2 with V136C, L176S, I180T
chain 3: not shown
chain 4: not shown
B27: PL-4 (bispecific antibody)
chain 1: not shown
chain 2: B23 chain 2 with A142C, L176S, I180T
chain 3: not shown
chain 4: not shown
B28: PL-2 (bispecific antibody)
chain 1: not shown
chain 2: B23 chain 2 with L176S, I180T
chain 3: not shown
chain 4: not shown
B29: PL-15 (bispecific antibody)
chain 1: not shown
chain 2: B23 chain 2 with G112R, G113T, G114V, G115A, V136C, L176S, I180T
chain 3: not shown
chain 4: not shown
B30: PL-12 (bispecific antibody)
chain 1: not shown
chain 2: B23 chain 2 with G112R, G113T, G114V, G115A, V136C, L176S, I180T
chain 3: not shown
chain 4: not shown
B31: PL-10 (bispecific antibody)
chain 1: not shown
chain 2: B23 chain 2 with A142C, L176S, I180T
chain 3: not shown
chain 4: not shown
B32: PL-8 (bispecific antibody)
chain 1: not shown
chain 2: B23 chain 2 with L176S, I180T
chain 3: not shown
chain 4: not shown
B33: PL-7 (bispecific antibody)
chain 1: not shown
chain 2: B23 chain 2 with A142C, L176S, I180T
chain 3: not shown
chain 4: not shown
B34: PL-17 (bispecific antibody)
chain 1: not shown
chain 2: B23 chain 2 with G112R, G113T, G114V, G115A, L176S, I180T
chain 3: not shown
chain 4: not shown
B35: PL-13 (bispecific antibody)
chain 1: not shown
chain 2: B23 chain 2 with G112R, G113T, G114V, G115A, A142C, L176S, I180T
chain 3: not shown
chain 4: not shown
B36: PL-6 (bispecific antibody)
chain 1: not shown
chain 2: B23 chain 2 with V136C, L176S, I180T
chain 3: not shown
chain 4: not shown
B37: PL-5 (bispecific antibody)
chain 1: not shown
chain 2: B23 chain 2 with L176S, I180T
chain 3: not shown
chain 4: not shown
B38: PL-11 (bispecific antibody)
chain 1: not shown
chain 2: B23 chain 2 with G112R, G113T, G114V, G115A, L176S, I180T
chain 3: not shown
chain 4: not shown
B39: PL-14 (bispecific antibody)
chain 1: not shown
chain 2: B23 chain 2 with G112R, G113T, G114V, G115A, L176S, I180T
chain 3: not shown
chain 4: not shown

Molecular target: T1, human CGRP
Assay: ELISA, coated CGRP
Procedure: (§1) In this test example, the abilities of the chimeric antibodies and humanized antibodies of C1 #, C9 #, C21 #, and C28 #to bind to human CGRP and rat CGRP were assessed using ELISAs. Plates were coated with […] human CGRP and rat CGRP, respectively, and blocked, and the antibodies, serially diluted, were then added. The plates were incubated for 1 h and washed, and a horseradish peroxidase-labeled anti-human Fc secondary antibody was then added. After incubation, color development was performed. […] The plates were incubated for 1 h and washed, and the antibodies, serially diluted, were then added. The plates were incubated for 1 h and washed, and a horseradish peroxidase-labeled streptavidin secondary antibody was then added. After incubation, color development was performed.

EC50 | Binder
1.83 nM | B1
1.39 nM | B2
2.72 nM | B3
2.61 nM | B4
3.4 nM | B5
1.3 nM | B6
1.34 nM | B7
1.43 nM | B8
1.3 nM | B9
2.8 nM | B10
2.9 nM | B11
3.57 nM | B12
2.57 nM | B13
1.58 nM | B14
1.25 nM | B15
1.41 nM | B16
1.65 nM | B17
1.47 nM | B18
1.58 nM | B19
2.54 nM | B20
1.29 nM | B21
1.33 nM | B22

Molecular target: T2, rat CGRP
Assay: ELISA, coated CGRP
Procedure: as §1

EC50 | Binder
3.1 nM | B1
1.97 nM | B2
2.44 nM | B3
2.38 nM | B4
9.27 nM | B5
4.27 nM | B6
6.28 nM | B7
6.45 nM | B8
3.57 nM | B9
5.68 nM | B10
7.36 nM | B11
7.94 nM | B12
5.26 nM | B13
3.72 nM | B14
4.2 nM | B15
4.32 nM | B16
3.97 nM | B17
2.72 nM | B18
5.3 nM | B19
3.86 nM | B20
4.48 nM | B21
3.13 nM | B22

What follows are binders tested against hPDL1 (human, UniProt Q9NZQ7 19-238) (assay: ELISA of Test Example 4 of WO2021139758).
hPDL1, sequence (Q9NZQ7 19-238 limits assumed): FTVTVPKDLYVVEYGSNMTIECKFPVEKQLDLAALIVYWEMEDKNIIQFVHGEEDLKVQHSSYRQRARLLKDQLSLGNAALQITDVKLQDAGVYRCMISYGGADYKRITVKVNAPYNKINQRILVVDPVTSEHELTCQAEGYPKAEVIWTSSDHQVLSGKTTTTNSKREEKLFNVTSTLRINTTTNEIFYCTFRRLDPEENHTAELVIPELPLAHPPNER

EC50 | Binder
1.6 nM | B23
0.6 nM | B24
1.6 nM | B25
0.6 nM | B26
0.7 nM | B27
0.5 nM | B28
1.4 nM | B29
0.5 nM | B30
0.6 nM | B31
1.4 nM | B32
0.5 nM | B33
1.4 nM | B34
0.5 nM | B35
0.8 nM | B36
0.7 nM | B37
0.6 nM | B38
1.3 nM | B39

These binders were tested against hCTLA4 (human, UniProt P16410 36-161) (assay: ELISA of Test Example 4 of WO2021139758).
hCTLA4, sequence (P16410 36-161 limits assumed): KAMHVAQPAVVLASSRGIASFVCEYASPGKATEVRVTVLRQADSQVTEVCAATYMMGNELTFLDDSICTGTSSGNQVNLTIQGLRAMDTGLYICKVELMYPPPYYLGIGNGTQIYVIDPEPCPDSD

EC50 | Binder
16.5 nM | B23
7.9 nM | B24
6.7 nM | B25
5.5 nM | B26
6.5 nM | B27
8 nM | B28
3.2 nM | B29
8 nM | B30
6.9 nM | B31
14.5 nM | B32
7.3 nM | B33
6.2 nM | B34
4.4 nM | B35
5.3 nM | B36
6.7 nM | B37
5.6 nM | B38
6 nM | B39
